Patent US20080160018A1

Experiments:
[1] = target: human IL-2 receptor (p55 Tac protein) on HUT-102 cells (human) (UniProt P01589); experiment: cell-based or functional assay
[2] = target: gH glycoprotein of cytomegalovirus on CMV-infected HEL cells (cytomegalovirus (CMV)) (UniProt P12824); experiment: immunostaining of CMV-infected HEL cells, 2-fold dilutions, HRP secondary
[3] = target: human IL-2 receptor (p55 Tac protein) on HUT-102 cells (human) (UniProt P01589); experiment: competition with radioiodinated mouse anti-Tac on HUT-102 cells

human IL-2 receptor (p55 Tac protein) on HUT-102 cells (human), sequence (P01589 22-272): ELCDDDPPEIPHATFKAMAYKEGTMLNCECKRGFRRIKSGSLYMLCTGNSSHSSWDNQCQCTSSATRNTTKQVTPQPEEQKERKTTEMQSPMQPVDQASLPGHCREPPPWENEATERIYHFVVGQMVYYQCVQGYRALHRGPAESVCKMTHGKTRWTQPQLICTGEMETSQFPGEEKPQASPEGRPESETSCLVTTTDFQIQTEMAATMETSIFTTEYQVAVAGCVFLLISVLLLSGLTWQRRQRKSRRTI

B1: mouse anti-Tac antibody (antibody, V domains shown)
VH: QVQLQQSGAELAKPGASVKMSCKASGYTFTSYRMHWVKQRPGQGLEWIGYINPSTGYTEYNQKFKDKATLTADKSSSTAYMQLSSLTFEDSAVYYCARGGGVFDYWGQGTTLTVSS
VL: QIVLTQSPAIMSASPGEKVTITCSASSSISYMHWFQQKPGTSPKLWIYTTSNLASGVPARFSGSGSGTSYSLTISRMEAEDAATYYCHQRSTYPLTFGSGTKLELK
Percent 51Cr release after ADCC, effector:target ratio 30:1 [1]: 4%
Percent 51Cr release after ADCC, effector:target ratio 100:1 [1]: < 1%

B2: mouse CMV5 antibody (antibody, V domains shown)
VH: EVQLQQSGPELVKPGASMKISCKASVYSFTGYTMNWVKQSHGQNLEWIGLINPYNGGTSYNQKFKGKATLTVDKSSNTAYMELLSLTSADSAVYYCTRRGFRDYSMDYWGQGTSVTVSS
VL: DIVLTQSPATLSVTPGDSVSLSCRASQSISNNLHWYQQKSHESPRLLIKYASQSISGIPSRFSGSGSGTDFTLSVNGVETEDFGMYFCQQSNSWPHTFGGGTKLEIK
least amount of antibody that produced a detectable precipitate [2]: 63 ng/mL

B3: CDR-only humanized anti-Tac antibody (antibody, V domains shown)
VH: QVQLVQSGAEVKKPGSSVKVSCKASGGTFSSYRMHWVRQAPGQGLEWMGYINPSTGYTEYNQKFKDRVTITADESTNTAYMELSSLRSEDTAFYFCAGGGGVFDYEYNGGLVTVSS
VL: DIQMTQSPSTLSASVGDRVTITCSASSSISYMHWYQQKPGKAPKLLMYTTSNLASGVPSRFIGSGSGTEFTLTISSLQPDDFATYYCHQRSTYPLTFGQGTKVEVK
fold reduction of binding affinity compared to the PDL humanized anti-Tac antibody [3]: > 100 fold
